T1: CsCH3H (Cosmos sulphureus, UniProt D8KZE8)
T1 construct: recombinant, expressed in Saccharomyces cerevisiae INVSc1, microsomal preparation
T1 sequence (D8KZE8 1-512): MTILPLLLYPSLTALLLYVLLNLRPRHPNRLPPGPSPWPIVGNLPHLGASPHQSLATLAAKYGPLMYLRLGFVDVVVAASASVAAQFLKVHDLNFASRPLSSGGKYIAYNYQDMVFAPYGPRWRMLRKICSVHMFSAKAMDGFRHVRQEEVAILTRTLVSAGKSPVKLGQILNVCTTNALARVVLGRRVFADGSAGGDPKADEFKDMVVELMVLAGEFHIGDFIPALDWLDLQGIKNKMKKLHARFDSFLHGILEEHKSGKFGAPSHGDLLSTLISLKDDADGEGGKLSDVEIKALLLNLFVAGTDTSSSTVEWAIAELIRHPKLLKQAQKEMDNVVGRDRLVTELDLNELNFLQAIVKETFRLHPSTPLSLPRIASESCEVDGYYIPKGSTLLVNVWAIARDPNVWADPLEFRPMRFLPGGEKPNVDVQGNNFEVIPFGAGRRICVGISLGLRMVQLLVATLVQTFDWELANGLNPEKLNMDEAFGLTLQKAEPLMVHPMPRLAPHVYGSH

B1: MdF3′HII (Malus domestica) (protein)
chain: MFVLIFFTVVLAFFLYRLFAPGGSRHALPLPPGPKPWPVVGNLPHLGPVPHHSLAALARQYGPLMHLRLGFADVVVAASASVASQFLKTHDANFSSRPPNSGAKHLAYNYQDLVFAPYGPRWRMLRKISSVHLFSGKALDDLKHVRQEEVGVLAHGLASAGSKPVSLGQLLNVCTVNALGRVMVGRRLFGDGGGREDQKADEFKSMVVEMMVLAGVFNIGDFIPALEWLDLQGVAGKMKKLHKRFDAFLTAIVEDHKRSGEGKHVDMLTTLLSLTDDADGEGAKLTDTEIKALLLNMFTAGTDTSSSTVEWAIAELLRHPKILAQLQQELDQVVGRDRLVTESDLPNLTYLQAVIKETFRLHPSTPLSLPRMASESCEINGFHIPKGATLLVNVWAISRDPAQWSEPLEFRPERFLPGGEKPNVDVKGNDFEVIPFGAGRRICAGMTLGLRMVSLMTATLVHGFDWTLADGLTPEKLNMDEAYGLTLQRAAPLMVHPRNRLAPHAYNASSP
notes: full-length ORF, 511 residues, C-terminal Twin-Strep-tag, expressed in Saccharomyces cerevisiae INVSc1, microsomal preparation; differs from FJ919633 at residues 73 and 457
B2: MdF3′HI (Malus domestica; I211M) (protein)
chain: MFVLIVFTVVFAFFLYRIFAPGGSRHSLPLPPGPKPWPVVGNLPHLGPVPHHSLAALARQYGPLMHLRLGFVDVVVAASASVASQFLKTHDANFSSRPPNSGAKHLAYNYQDLVFAPYGPRWRLLRKISSVHLFSGKALDDLKHVRQEEVGVLAHGLASAGSKPVNLAQLLNVCTVNALGRVMVGRRLFGNGMGGEDPKADEFKSMVVEMMVLAGVFNIGDFISSLEWLDLQGVAGKMKKLHKRFDAFLTAIVEEHKRSRGGKHVDMLTTLLSLKEDADGEGAKLTDTEIKALLLNMFTAGTDTSSSTVEWAIAELLRHPKILAQLQQELDQVVGRDRLVTESDLPNLTYLQAVIKETFRLHPSTPLSLPRMATESCEINGFHIPKGATLLVNVWAVSRDPDQWSEPLEFRPERFMSGGEKPNVDIRGNDFEVIPFGAGRRICAGMSLGLRMVSLMTATLVHGFDWTLADGLTPEKLNMDEAYGLTLQRAAPLMVHPRNRLAPHAYNASSS
notes: full-length ORF, 511 residues, C-terminal Twin-Strep-tag, expressed in Saccharomyces cerevisiae INVSc1, microsomal preparation; clone MH468788 has I211 and S224, differing from FJ919631 at both residues (M211 and P224 there)

Key:
CsCH3H = molecular target: T1, CsCH3H; assay: LC-MS/DAD detection of 3-hydroxyphloretin formed by yeast microsomes; format: biochemical; details: 10 µM substrate, 1.55 mM NADPH, 100 mM HEPES pH 7.5, 30 °C
[1] = substrate: O=C1C[C@@H](c2ccc(O)cc2)Oc2cc(O)cc(O)c21; assay: cells, lysate or membranes; format: biochemical, Malus domestica; details: 0.5 mM NADPH, Tris/HCl pH 6.5–6.75, 25 °C, labelled compound, pH 6.0
[2] = substrate: O=C1c2c(O)cc(O)cc2O[C@H](c2ccc(O)cc2)[C@H]1O; assay: cells, lysate or membranes; format: biochemical, Malus domestica; details: 0.5 mM NADPH, Tris/HCl pH 6.5–6.75, 25 °C, labelled compound, pH 6.0
[3] = substrate: O=c1c(O)c(-c2ccc(O)cc2)oc2cc(O)cc(O)c12; assay: cells, lysate or membranes; format: biochemical, Malus domestica; details: 0.5 mM NADPH, Tris/HCl pH 6.5–6.75, 25 °C, labelled compound, pH 6.0

| Molecule | LC-MS/DAD detection of 3-hydroxyphloretin formed by yeast microsomes (CsCH3H) | Km [1] [µM] | Vmax [1] [µM/min] | Km [2] [µM] | Vmax [2] [µM/min] | Km [3] [µM] | Vmax [3] [µM/min] |
| --- | --- | --- | --- | --- | --- | --- | --- |
| O=C(CCc1ccc(O)cc1)c1c(O)cc(O)cc1O [phloretin] | produced sufficient amounts of 3-hydroxyphloretin to be detected by the DAD | – | – | – | – | – | – |
| B1 | – | 0.31 ± 0.10 | 30 | 0.31 ± 0.03 | 19.8 | 0.20 ± 0.02 | 19.8 |
| B2 | – | 2.11 ± 1.5 | 43.8 | 0.42 ± 0.06 | 28.2 | 0.21 ± 0.07 | 21 |
